These results are taken from FireProtDB (doi:10.1021/bi00025a018).

For this data set the following is noted: Escherichia coli (strain K12), Thermal, CD, NaCl 0.1 M, reversible: yes, whole UniProt chain shown.

B1: Ribonuclease HI wild type, P0A7Y4 (protein)
chain: MLKQVEIFTDGSCLGNPGPGGYGAILRYRGREKTFSAGYTRTTNNRMELMAAIVALEALKEHCEVILSTDSQYVRQGITQWIHNWKKRGWKTADKKPVKNVDLWQRLDAALGQHQIKWEWVKGHAGHPENERCDELARAAAMNPTLEDTGYQVEV
For the protein B1, under “pH 3, glycine-HCl 10 mM”, the Tm stood at 50.9 °C and the “unfolding enthalpy (van 't Hoff)” value turned out to be 106 kcal/mol. Moreover, under “pH 5.5, Sodium acetate 10 mM”, the midpoint of thermal melting (Tm) was determined as 52.5 °C and the “unfolding enthalpy (van 't Hoff)” value was 81.8 kcal/mol.

The Tm is the temperature at the midpoint of the melting transition.
